No end group written: not given here.
Experiments:
[1] = biological target: T1, soluble human insulin receptor-immunoglobulin heavy chain chimera (human, UniProt P06213 28-956, limits assumed); assay: phage ELISA
T1 construct: extracellular domain; also called sIR-Fc; IR (prepared according to Bass et al., 1996); not shown: immunoglobulin heavy chain constant domains (Bass et al., 1996)

[2] = biological target: T2, soluble IGF-1R (recombinant human IGF-1R extracellular domain, R&D Systems Cat. # 391-GR/CF) (human, UniProt P08069 31-935); assay: phage ELISA
T2 construct: extracellular domain; Bought protein; coated on plates (phage ELISA, TRF) or Eu-labelled (TR-FRET); also called sIGF-1R; rhIGF-1R

Row | Binder | ratio over background [1] [ratio] | ratio over background [2] [ratio] | IR/IGF-1R ratio comparison [1] [ratio]
1 | EAASLGSQDRNFYDWFVRQVV (on phage) [A6S-2-D11-IR] | 13.5 | 37.4 | –
2 | FFYDCLAALLQGVARYHDLCAVEIT (on phage) [20C-4-C7-IGFR] | 1.3 | 28 | –
3 | GVRAMSFYDALVSVLGLGPSG (on phage) [20E2B-1-A6-IGFR] | 1.1 | 18.1 | –
4 | KLHNLMFYYGLQRLVWGAGLG (on phage) [20E23-4-H3-IGFR] | 1.1 | 14.8 | –
5 | NSRDGGFYLQLERLLGFPVTG (on phage) [20E2B-3-D4-IGFR] | 0.8 | 7.9 | –
6 | SACQFDCHENFYDWFARQVSGGAAYG (on phage) [H2CA-4-E8-IGFR] | 1 | 9.2 | –
7 | QPAPDGFYSALMKLIGRGGVS (on phage) [20E2B-3-C8-IGFR] | 1.8 | 15.6 | –
8 | LRIANLFYQRLWDLAFGGGG (on phage) [20E2B-3-E8-IGFR] | 1.5 | 16.7 | –
9 | ICTGQGFYQVLCGLLRGTSAR (on phage) [20E2B-2-B3-IGFR] | 0.7 | 5.3 | –
10 | QGNVLDFYGWIGRLLAKQGSD (on phage) [20E2B-3-D12-IGFR] | 0.9 | 6.2 | –
11 | RFSTDGFYQYLLALVGGGPVG (on phage) [20E2B-1-A11-IGFR] | 1 | 9.5 | –
12 | RGIVAMVEATEVGSDHDPFYHKLSELVQGS (on phage) [B6Hα-2-C7-IR] | 1 | – | –
13 | GGTEVDFYRALERLVRGQLGL (on phage) [20E2B-3-D8-IGFR] | 1.6 | 17.7 | –
14 | GNGDGMFYQLLSLLVGRDMHV (on phage) [20E2B-3-C2-IGFR] | 0.6 | 8.9 | –
15 | HLADGQFHEKFYDWFERQISSRCNDC (on phage) [E2CA-3-E11-IGFR] | 1 | – | –
16 | RCEEKQAEVGPSSDPFYHKMSELLGCR (on phage) [B6Ha-3-E9-IR] | 1.7 | 24.2 | –
17 | YRGMLVLGRISGGAGKAASERPARIGQKVSAVNFYDWFV (on phage) [A6L-0-E3-IR] | – | 26 | –
18 | GFREGSFYDWFQAQVT (on phage) [E4Dα-2-D11-IR] | 3.3 | 11.1 | –
19 | PDLHKGFYAQLAQLIRGQLLS (on phage) [20E2B-3-E3-IGFR] | 1.3 | 16.3 | –
20 | QGGSASFYDAIDRLLRMRIGG (on phage) [20E2A-4-F11-IGFR] | 1.3 | 18.8 | –
21 | IWATGDFYRLLSQLVMGRVGT (on phage) [20E2B-2-28-IGFR] | 0.8 | 5.7 | –
22 | VEGRGLFYDLLRQLLARRQNG (on phage) [20E2B-3-C6-IGFR] | 1.1 | 16.8 | –
23 | IQQELTFYDLLHRLVRSELGS (on phage) [20E2B-3-D2-IGFR] | 1.1 | 12.4 | –
24 | GRTMAVMAAGGPDDPFYHKLSELVQGG (on phage) [B6Hα-2-D6-IR] | 1 | – | –
25 | DRAFYNGLRDLVGAVYGAWD (on phage) [R20α-4-20C11-IR] | 3 | 30.8 | –
26 | LGVTDGFYAALGYLIHGVGQF (on phage) [20E2B-3-D11-IGFR] | 1.6 | 12.2 | –
27 | RGQSDAFYSGLWALIGLSDG (on phage) [R20β-4-A6-IR] | 1.5 | 25.9 | –

Row | Binder | ratio over background [1] [ratio] | ratio over background [2] [ratio] | IR/IGF-1R ratio comparison [1] [ratio]
28 | LQPCSGFYECIERLIGVKLSG (not fully specified (bridges); cysteine pairing not given here, on phage) [20E2Bβ-4-G7-IR] | 1.6 | 25.2 | –
29 | VATSQGFYSGLSELLQGGGNV (on phage) [20E2B-3-E12-IGFR] | 0.8 | 6 | –
30 | QFYGCLLDLSLGVPSFGWRRRCITA (on phage) [20C-3-A4-IGFR] | 1.2 | 8.8 | –
31 | SQAGSAFYAWFDQVLRTVHSA (on phage) [20E2Bβ-4-G6-IR] | – | 6.2 | –
32 | VERSASSQDGNFYDWFVVQIR (on phage) [A6S-2-D1-IR] | 12 | 30.6 | –
33 | TFYSCLASLLTGTPQPNRGPWERCR (on phage) [20C-3-G3-IGFR] | 1.2 | 32.3 | –
34 | FRTLAAQHDSFYDWFDRQVSGAAGER (on phage) [H2CA-3-C11-IGFR] | 1.6 | 3.3 | –
35 | YSCGDGFYSLLSDLLGGQFRC (on phage) [20E22-4-H12-IGFR] | 0.8 | 9.7 | –
36 | RGCNDDGGKGWSDDPFYHKLSELICGG (on phage) [B6Hα-1-A2-IR] | 1 | – | –
37 | LGYQEPFQQNFYDWFVRQVSGAENAG (on phage) [H2CA-3-E8-IGFR] | 2.2 | 6.3 | –
38 | QPDHSYFYSLLQELVGSEERL (on phage) [20E2B-4-F9-IGFR] | – | 14.7 | –
39 | SSYGCDGFYLMLFSLGLVASQELEC (on phage) [20C-3-A1-IGFR] | 1.5 | 20.8 | –
40 | SAAQLFFQESFYDWFLRQVAESSQPN (on phage) [H2CA-4-F11-IGFR] | 1 | 6.8 | –
41 | PGTDLGFYQALRCVVIQGACD (on phage) [20E2B-2-B2-IGFR] | 0.6 | 4.9 | –
42 | VGYQGQGDENFYDWFIRQVSGRLGVQ (on phage) [H2CA-4-F5-IGFR] | 0.8 | 9.7 | –
43 | YRGMLVLGRSSDGAGKVAFERPARIGQTVFAVNFYDWFV (on phage) [A6L-0-E6-IR] | 1.8 | 31 | –
44 | RLFYCGIQALGANLGYSGCV (on phage) [R20α-4-20A12-IR] | 2.4 | 39.9 | –
45 | AICDAGFHEHFYDWFALQVSDCGRQS (on phage) [H2CA-2-B11-IGFR] | 1.6 | 4.6 | 0.3
46 | AQPCGGFYGLLEQLVGRSVCD (on phage) [20E2B-4-F10-IGFR] | 2.2 | 17.3 | –
47 | FYDAIDQLVRGSARAGGTRD (on phage) [R20α-3-20E2-IR] | 3.1 | 39.9 | –
48 | DRDFCRFYERLTALVGGQVDGGWPC (on phage) [20C-3-F6-IGFR] | 1.9 | 26.1 | –
49 | TSEVQRRSQDNFYDWFVAQVA (on phage) [A6S-3-E2-IR] | 9.8 | 24.7 | –
50 | VGRASGFPENFYDWFGRQLSLQSGEQ (on phage) [M2CA-4-H6-IGFR] | 0.7 | 10.5 | –
51 | PVGVQGFYEGLSRLVLGRGGW (on phage) [20E2B-4-F8-IGFR] | 0.8 | 7.3 | –
52 | RGAVAGFHDQFYDWFDRQVSRVHKFG (on phage) [H2CA-4-H9-IGFR] | – | 5.6 | –
53 | RGMKEEVLVGGSTDPFYHKLSELLQGS (on phage) [B6Hα-3-F11-IR] | 1.6 | 18.7 | –
